Among the data in publication PMC2812487 are response values, retold here.

For one assay, the target named is HLA-Cw3 on 721.221 cells. Description: flow cytometry on cells (Ig-fusion protein staining).
Another assay addresses HLA-Cw6 on 721.221 cells. The assay is described as above.

As to “KIR2DS2-Ig (from UniProt P43631) KYK/KFK”, the response is 114 MFI with HLA-Cw3 on 721.221 cells and 1.05 MFI in the assay with HLA-Cw6 on 721.221 cells.
